Data published in US20040166543A1 (Dana-Farber, published 2004).
One block for each binder: values may come before it.

What was measured:
[1] = target: T1, glutathione S-transferase (GST) (UniProt P08515 1-218 = GST); assay: GST pull-down, anti-MUC1/CD immunoblot (FIG. 1B)
[2] = target: T1, glutathione S-transferase (GST); assay: GST pull-down, anti-MUC1/CD immunoblot (FIG. 4A)
Procedure: The proteins in the eight different reaction mixtures were incubated with either GST or GST fused to β-catenin (“GST-β-Cat”). The resulting mixtures were incubated with glutathione-Sepharose 4B™ beads.
The beads were then added to the phosphorylation reaction mixture (described above) which was incubated for 1 h at 4° C.

T1 sequence (P08515 whole entry): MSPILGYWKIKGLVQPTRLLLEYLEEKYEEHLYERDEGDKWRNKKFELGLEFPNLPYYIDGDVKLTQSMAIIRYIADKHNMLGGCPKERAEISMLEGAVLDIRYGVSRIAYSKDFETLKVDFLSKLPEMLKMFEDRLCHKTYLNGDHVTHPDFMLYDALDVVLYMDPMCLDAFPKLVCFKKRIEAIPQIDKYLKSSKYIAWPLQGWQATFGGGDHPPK

binding result [1]: no binding
B1: MUC1/CD (purified hexahistidine tagged MUC1 cytoplasmic domain), unphosphorylated (other)
chain: CQCRRKNYGQLDIFPARDTYHPMSEYPTYHTHGRYVPPSSTDRSPYEKVSAGNGGSSLSYTNPAVAATSANL
notes: also called His-MUC1/CD; MUC1/CD (WT); not shown: hexahistidine tag

binding result [2]: no binding
B2: MUC1/CD phosphorylated by c-Src (incubated with c-Src and ATP) (other)
chain: B1 chain
modifications: phosphotyrosine at 46 (YEKV site) and at other sites that are not named; made in vitro with purified c-Src and ATP
notes: also called phosphorylated MUC1/CD; not shown: hexahistidine tag
